2 molecules from patent KR20240072325A (dated 2024) can be followed below.

Changes are numbered by the printed parent chain. Values joined by “and” are separate entries in the source; they are usually repeats but may differ in a detail not shown here. Equal values may be shown once.

This assay deals with SARS-CoV-1 스파이크 단백질 (SARS-CoV-1 spike protein, SP) (SARS-CoV-1, UniProt P59594 14-1195).

B1: Anti-SP2에서 발현된 Fv-변이체 (expressed Fv-variant of Anti-SP2, fusion protein with sfGFP and His-tag) (other)
chain: EVQLVESAAEVRRPGASVKITCKASGYSFSTYGIQWMRQAPGQRPEWLGWIHAGTGGTKYSRKFQGRITITRDTSANTVYLDLNSLTSEDTAVYYCARCLRQAGTADDVWGQGTTVTVSS
For orientation: Kd means the concentration at which binding is half-saturated. Low values mean higher affinity, high ones lower affinity. For the molecule B1, the Kd was 16.2 nM and 42.2 nM.

B2: Anti-SP1에서 발현된 Fv-변이체 (expressed Fv-variant of Anti-SP1, fusion protein with sfGFP and His-tag) (other)
chain: B1 chain with C99G, L100R, R101T, Q102T, A103G, G104N, T105D, A106R, D107P, V109Y
With B2, the Kd is 41.7 nM and 14.1 nM.
